Assay results published in patent publication US20130209454A1.

What was measured:
Assay in all cases: cell-based or functional assay
[1] = molecular target: HIV-1 Env of strain 1056_10_TA11_1826 (HIV-1)
[2] = molecular target: HIV-1 Env of strain 7030102001E5(Rev) (HIV-1)
[3] = molecular target: HIV-1 Env of strain THRO4156.18 (HIV-1)
[4] = molecular target: HIV-1 Env of strain 6540.v4.c1 (HIV-1)
[5] = molecular target: HIV-1 Env of strain BJOX009000.02.4 (HIV-1)
[6] = molecular target: HIV-1 Env of strain WEAU_d15_410_787 (HIV-1)
[7] = molecular target: Env of HIV-1 strain 9004SS_A3_4 (HIV-1)
[8] = molecular target: Env of HIV-1 strain Ce704809221_1B3 (HIV-1)
[9] = molecular target: Env of HIV-1 strain Ce0682_E4 (HIV-1)
[10] = molecular target: Env of HIV-1 strain ZM249M.PL1 (HIV-1)
[11] = molecular target: Env of HIV-1 strain 6041.v3.c23 (HIV-1)
[12] = molecular target: Env of HIV-1 strain TRO.11 (HIV-1)
[13] = molecular target: Env of HIV-1 strain TRJO4551.58 (HIV-1)
[14] = molecular target: Env of HIV-1 strain PVO.4 (HIV-1)
[15] = molecular target: Env of HIV-1 strain Ce0393_C3 (HIV-1)
[16] = molecular target: Env of HIV-1 strain CAP45.2.00.G3 (HIV-1)
[17] = molecular target: HIV-1 Env of strain 89-F1_2_25 (HIV-1)
[18] = molecular target: Env of HIV-1 strain T257-31 (HIV-1)
[19] = molecular target: HIV-1 Env of strain 620345.c01 (HIV-1)
[20] = molecular target: Env of HIV-1 strain X1254_c3 (HIV-1)
[21] = molecular target: HIV-1 Env of strain ZM233M.PB6 (HIV-1)
[22] = molecular target: HIV-1 Env of strain 6041.v3.c23 (HIV-1)
[23] = molecular target: HIV-1 Env of strain REJO4541.67 (HIV-1)
[24] = molecular target: HIV-1 Env of strain X2131_C1_B5 (HIV-1)
[25] = molecular target: HIV-1 Env of strain Q461.e2 (HIV-1)
[26] = molecular target: HIV-1 Env of strain 249M B10 (HIV-1)
[27] = molecular target: HIV-1 Env of strain P0402_c2_11 (HIV-1)
[28] = molecular target: Env of HIV-1 strain 7030102001E5(Rev-) (HIV-1)
[29] = molecular target: Env of HIV-1 strain 231965.c01 (HIV-1)

Chain of NIH45-46 (antibody) (VH): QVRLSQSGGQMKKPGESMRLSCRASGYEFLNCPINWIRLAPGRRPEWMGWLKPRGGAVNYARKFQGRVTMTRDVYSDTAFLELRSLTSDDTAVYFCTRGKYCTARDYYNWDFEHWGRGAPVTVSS
Chain of NIH45-46 (antibody) (V domain): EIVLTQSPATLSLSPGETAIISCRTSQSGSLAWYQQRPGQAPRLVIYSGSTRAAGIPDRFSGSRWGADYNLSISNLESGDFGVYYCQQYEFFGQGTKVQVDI

## NIH45-46 (antibody)
[1]
  IC50, pseudovirus neutralization: 0.094 µg/mL
[2]
  IC50, pseudovirus neutralization: 0.14 µg/mL
[3]
  IC50, pseudovirus neutralization: 1.91 µg/mL
[4]
  IC50, pseudovirus neutralization: > 50 µg/mL
[5]
  IC50, pseudovirus neutralization: 0.26 µg/mL
[6]
  IC50, pseudovirus neutralization: 0.005 µg/mL
[7]
  IC80: 0.65 µg/mL
[8]
  IC80: 0.88 µg/mL
[9]
  IC80: 0.155 µg/mL
[10]
  IC80: 0.053 µg/mL
[11]
  IC80: 0.04 µg/mL
[12]
  IC80: 7.49 µg/mL
[13]
  IC80: 0.13 µg/mL
[14]
  IC80: 0.41 µg/mL
[15]
  IC80: 0.936 µg/mL
[16]
  IC80: > 50 µg/mL
[17]
  IC50, pseudovirus neutralization: > 50 µg/mL
[18]
  IC80: 1.38 µg/mL
[19]
  IC50, pseudovirus neutralization: > 50 µg/mL
[20]
  IC80: 0.107 µg/mL
[21]
  IC50, pseudovirus neutralization: 2.5 µg/mL
[22]
  IC50, pseudovirus neutralization: 0.006 µg/mL
[23]
  IC50, pseudovirus neutralization: 0.014 µg/mL
[24]
  IC50, pseudovirus neutralization: 0.23 µg/mL
[25]
  IC50, pseudovirus neutralization: 0.076 µg/mL
[26]
  IC50, pseudovirus neutralization: 0.04 µg/mL
[27]
  IC50, pseudovirus neutralization: 0.073 µg/mL
[28]
  IC80: 0.63 µg/mL
[29]
  IC80: 0.126 µg/mL
